Measured values published in the supplement of paper PMC9112550, “Optimization of the antimicrobial peptide Bac7 by deep mutational scanning” (BMC Biology, 2022).

system: Escherichia coli TOP10; experiment: shrunken log2 fold change of peptide-encoding DNA abundance (4.5 h post-induction vs induction); higher = less antimicrobial activity (less host growth inhibition); conditions: time post-induction: 4.5 h; library: site-saturation at positions 5, 18, 19, 20
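Also: peptides expressed intracellularly from a pBAD plasmid library in pooled LB shake-flask culture, induced with 0.3% L-arabinose, DNA abundance read by NGS, three biological replicates, DESeq2 with apeglm shrinkage.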

Sequence | shrunken log2 fold change
RRIRERPPRLPRPRPRPSWIPRP | -0.0746
RRIRYRPPRLPRPRPRPFEKPRP | 0.021
RRIRHRPPRLPRPRPRPLWSPRP | -0.31
RRIRSRPPRLPRPRPRPSEAPRP | 0.121
RRIRTRPPRLPRPRPRPQNSPRP | -1.19
RRIRGRPPRLPRPRPRPSGVPRP | 0.633
RRIRTRPPRLPRPRPRPAAYPRP | -0.000154
RRIRCRPPRLPRPRPRPDCGPRP | -0.169
RRIRWRPPRLPRPRPRPKMQPRP | 0.329
RRIRGRPPRLPRPRPRPASWPRP | 2.63
RRIRQRPPRLPRPRPRPNCKPRP | -0.555
RRIRQRPPRLPRPRPRPISKPRP | -0.0725
RRIRRRPPRLPRPRPRPKLHPRP | 0.167
RRIRFRPPRLPRPRPRPLQAPRP | 0.285
RRIRDRPPRLPRPRPRPHHSPRP | -1.11
RRIRFRPPRLPRPRPRPFALPRP | -0.00558
RRIRERPPRLPRPRPRPSVYPRP | -0.493
RRIRKRPPRLPRPRPRPQNQPRP | 0.0634
RRIRMRPPRLPRPRPRPSHYPRP | -0.201
RRIRPRPPRLPRPRPRPKFMPRP | -0.171
RRIRYRPPRLPRPRPRPHVEPRP | 0.0184
RRIRHRPPRLPRPRPRPYCDPRP | -0.313
RRIRRRPPRLPRPRPRPNTPPRP | 0.0411
RRIRERPPRLPRPRPRPRSTPRP | -0.259
RRIRERPPRLPRPRPRPQFHPRP | -0.629

Sequence | shrunken log2 fold change
RRIRARPPRLPRPRPRPMIPPRP | 0.0233
RRIRCRPPRLPRPRPRPIGCPRP | -0.00449
RRIRDRPPRLPRPRPRPTGHPRP | 0.502
RRIRPRPPRLPRPRPRPTTIPRP | -0.223
RRIRIRPPRLPRPRPRPSFHPRP | -1.13
RRIRARPPRLPRPRPRPTMGPRP | 0.469
RRIRPRPPRLPRPRPRPQPWPRP | 0.348
RRIRMRPPRLPRPRPRPHLDPRP | 0.108
RRIRNRPPRLPRPRPRPKGQPRP | 0.0938
RRIRTRPPRLPRPRPRPIWMPRP | -0.101
RRIRSRPPRLPRPRPRPIWGPRP | 0.0936
RRIRMRPPRLPRPRPRPYFSPRP | -0.177
RRIRQRPPRLPRPRPRPKHVPRP | -0.067
RRIRVRPPRLPRPRPRPCVYPRP | -0.136
RRIRWRPPRLPRPRPRPIQPPRP | 0.0851
RRIRFRPPRLPRPRPRPSKTPRP | 0.0514
RRIRIRPPRLPRPRPRPSMIPRP | -0.458
RRIRRRPPRLPRPRPRPMFPPRP | 0.118
RRIRVRPPRLPRPRPRPWVPPRP | -0.101
RRIRERPPRLPRPRPRPEMYPRP | -0.00136
RRIRSRPPRLPRPRPRPAAHPRP | 0.154
RRIRMRPPRLPRPRPRPMAEPRP | 2.79
RRIRPRPPRLPRPRPRPCAEPRP | 0.27
RRIRNRPPRLPRPRPRPSTGPRP | -0.266
RRIRTRPPRLPRPRPRPFQNPRP | 0.0326

Sequence | shrunken log2 fold change
RRIRRRPPRLPRPRPRPNARPRP | 0.35
RRIRIRPPRLPRPRPRPWAIPRP | -0.0196
RRIRRRPPRLPRPRPRPYESPRP | 0.0181
RRIRSRPPRLPRPRPRPLKTPRP | -0.0127
RRIRHRPPRLPRPRPRPKIGPRP | 0.0776
RRIRGRPPRLPRPRPRPRRQPRP | 0.85
RRIRSRPPRLPRPRPRPNLHPRP | -0.219
RRIRSRPPRLPRPRPRPYFPPRP | -0.694
RRIRRRPPRLPRPRPRPITHPRP | -0.287
RRIRPRPPRLPRPRPRPWPNPRP | -0.0364
RRIRIRPPRLPRPRPRPFCEPRP | -0.23
RRIRKRPPRLPRPRPRPNSTPRP | -0.0291
RRIRERPPRLPRPRPRPYHSPRP | -0.133
RRIRTRPPRLPRPRPRPFPAPRP | 0.299
RRIRIRPPRLPRPRPRPWYHPRP | -0.351
RRIRSRPPRLPRPRPRPIKEPRP | -0.0466
RRIRSRPPRLPRPRPRPHMGPRP | -0.0366
RRIRCRPPRLPRPRPRPCHCPRP | 0.00562
RRIRKRPPRLPRPRPRPIETPRP | 0.00938
RRIRGRPPRLPRPRPRPMFWPRP | 0.336
RRIRCRPPRLPRPRPRPEMGPRP | 0.0517
RRIRSRPPRLPRPRPRPLKYPRP | -0.653
RRIRSRPPRLPRPRPRPKQEPRP | 0.286
RRIRTRPPRLPRPRPRPKNDPRP | -0.362
RRIRNRPPRLPRPRPRPIRMPRP | -0.00776
